Results from article PMC3730827 (Cell, 2013).

What was measured:
Test in all cases: cryo-EM structure
[1] = biological target: ribosomal protein S12e (rabbit 40S subunit) (rabbit, UniProt G1SFR8 1-132)
[2] = biological target: ribosomal protein S3e (rabbit 40S subunit) (rabbit, UniProt G1TNM3 1-243)
[3] = biological target: ribosomal protein S10e (rabbit 40S subunit) (rabbit, UniProt G1T168 1-165)
[4] = biological target: ribosomal protein S23e (rabbit 40S subunit) (rabbit, UniProt G1SZ47 1-143)

Measured: binding result

B1: DHX29, recombinant human (enzyme)
chain: MGGKNKKHKAPAAAVVRAAVSASRAKSAEAGIAGEAQSKKPVSRPATAAAAAAGSREPRVKQGPKIYSFNSTNDSSGPANLDKSILKVVINNKLEQRIIGVINEHKKQNNDKGMISGRLTAKKLQDLYMALQAFSFKTKDIEDAMTNTLLYGGDLHSALDWLCLNLSDDALPEGFSQEFEEQQPKSRPKFQSPQIQATISPPLQPKTKTYEEDPKSKPKKEEKNMEVNMKEWILRYAEQQNEEEKNENSKSLEEEEKFDPNERYLHLAAKLLDAKEQAATFKLEKNKQGQKEAQEKIRKFQREMETLEDHPVFNPAMKISHQQNERKKPPVATEGESALNFNLFEKSAAATEEEKDKKKEPHDVRNFDYTARSWTGKSPKQFLIDWVRKNLPKSPNPSFEKVPVGRYWKCRVRVIKSEDDVLVVCPTILTEDGMQAQHLGATLALYRLVKGQSVHQLLPPTYRDVWLEWSDAEKKREELNKMETNKPRDLFIAKLLNKLKQQQQQQQQHSENKRENSEDPEESWENLVSDEDFSALSLESANVEDLEPVRNLFRKLQSTPKYQKLLKERQQLPVFKHRDSIVETLKRHRVVVVAGETGSGKSTQVPHFLLEDLLLNEWEASKCNIVCTQPRRISAVSLANRVCDELGCENGPGGRNSLCGYQIRMESRACESTRLLYCTTGVLLRKLQEDGLLSNVSHVIVDEVHERSVQSDFLLIILKEILQKRSDLHLILMSATVDSEKFSTYFTHCPILRISGRSYPVEVFHLEDIIEETGFVLEKDSEYCQKFLEEEEEVTINVTSKAGGIKKYQEYIPVQTGAHADLNPFYQKYSSRTQHAILYMNPHKINLDLILELLAYLDKSPQFRNIEGAVLIFLPGLAHIQQLYDLLSNDRRFYSERYKVIALHSILSTQDQAAAFTLPPPGVRKIVLATNIAETGITIPDVVFVIDTGRTKENKYHESSQMSSLVETFVSKASALQRQGRAGRVRDGFCFRMYTRERFEGFMDYSVPEILRVPLEELCLHIMKCNLGSPEDFLSKALDPPQLQVISNAMNLLRKIGACELNEPKLTPLGQHLAALPVNVKIGKMLIFGAIFGCLDPVATLAAVMTEKSPFTTPIGRKDEADLAKSALAMADSDHLTIYNAYLGWKKARQEGGYRSEITYCRRNFLNRTSLLTLEDVKQELIKLVKAAGFSSSTTSTSWEGNRASQTLSFQEIALLKAVLVAGLYDNVGKIIYTKSVDVTEKLACIVETAQGKAQVHPSSVNRDLQTHGWLLYQEKIRYARVYLRETTLITPFPVLLFGGDIEVQHRERLLSIDGWIYFQAPVKIAVIFKQLRVLIDSVLRKKLENPKMSLENDKILQIITELIKTENN
binds: all assays above
